Where “and” joins values, the source holds several entries; their conditions need not be identical. Identical values can stand only once. Blank lines part the entries; values can stand above or below the substance they belong to.
Columns and labels:
[1] = target: D3H44 light chain Q124E_V133E, N-terminal HA or FLAG tag; experiment: LCCA, L1:L2 DNA 1:3, SPR of light chain tags; competing light chain m17
[2] = target: D3H44 light chain Q124E_V133E, N-terminal HA or FLAG tag; experiment: LCCA, L1:L2 DNA 1:9, SPR of light chain tags; competing light chain m17
[3] = target: D3H44 light chain Q124R, N-terminal HA or FLAG tag; experiment: LCCA, L1:L2 DNA 1:3, SPR of light chain tags; competing light chain m18
[4] = target: D3H44 light chain Q124R_Q160K_T178R, N-terminal HA or FLAG tag; experiment: LCCA, L1:L2 DNA 1:3, SPR of light chain tags; competing light chain m20
[5] = target: D3H44 light chain Q124R, N-terminal HA or FLAG tag; experiment: LCCA, L1:L2 DNA 1:9, SPR of light chain tags; competing light chain m18
[6] = target: D3H44 light chain Q124E_Q160E_T178E, N-terminal HA or FLAG tag; experiment: LCCA, L1:L2 DNA 1:3, SPR of light chain tags; competing light chain m14
[7] = target: D3H44 light chain Q124E_T180E, N-terminal HA or FLAG tag; experiment: as above
[8] = target: D3H44 light chain Q124R_Q160K_T178R, N-terminal HA or FLAG tag; experiment: LCCA, L1:L2 DNA 1:3, SPR of light chain tags; competing light chain m13
[9] = target: D3H44 light chain Q124E_V133E, N-terminal HA or FLAG tag; experiment: LCCA, L1:L2 DNA 1:9, SPR of light chain tags; competing light chain m14
[10] = target: D3H44 light chain Q124R_Q160K_T178R, N-terminal HA or FLAG tag; experiment: LCCA, L1:L2 DNA 1:3, SPR of light chain tags; competing light chain m18
[11] = target: D3H44 light chain Q124R_Q160K_T178R, N-terminal HA or FLAG tag; experiment: LCCA, L1:L2 DNA 1:9, SPR of light chain tags; competing light chain m18
[12] = target: D3H44 light chain Q124E_V133E, N-terminal HA or FLAG tag; experiment: LCCA, L1:L2 DNA 1:3, SPR of light chain tags; competing light chain m14
[13] = target: D3H44 light chain Q124R_T178R, N-terminal HA or FLAG tag; experiment: LCCA, L1:L2 DNA 1:9, SPR of light chain tags; competing light chain m11
[14] = target: D3H44 light chain Q124R_T178K, N-terminal HA or FLAG tag; experiment: as above
[15] = target: D3H44 light chain Q124K_T178R, N-terminal HA or FLAG tag; experiment: as above
[16] = target: D3H44 light chain Q124E_Q160E_T180E, N-terminal HA or FLAG tag; experiment: LCCA, L1:L2 DNA 1:9, SPR of light chain tags; competing light chain m16
[17] = target: D3H44 light chain Q124E_Q160E_T180E, N-terminal HA or FLAG tag; experiment: LCCA, L1:L2 DNA 1:3, SPR of light chain tags; competing light chain m15
[18] = target: D3H44 light chain Q124E_T180E, N-terminal HA or FLAG tag; experiment: LCCA, L1:L2 DNA 1:3, SPR of light chain tags; competing light chain m10
[19] = target: D3H44 light chain Q124E_Q160E_T180E, N-terminal HA or FLAG tag; experiment: LCCA, L1:L2 DNA 1:3, SPR of light chain tags; competing light chain m16
[20] = target: D3H44 light chain Q124R_T178R, N-terminal HA or FLAG tag; experiment: LCCA, L1:L2 DNA 1:3, SPR of light chain tags; competing light chain m11
[21] = target: D3H44 light chain Q124R_T178K, N-terminal HA or FLAG tag; experiment: as above
[22] = target: D3H44 light chain Q124K_T178R, N-terminal HA or FLAG tag; experiment: as above
[23] = target: D3H44 light chain Q124E_Q160E_T180E, N-terminal HA or FLAG tag; experiment: LCCA, L1:L2 DNA 1:9, SPR of light chain tags; competing light chain m15
[24] = target: D3H44 light chain Q124E_Q160E_T180E, N-terminal HA or FLAG tag; experiment: LCCA, L1:L2 DNA 1:9, SPR of light chain tags; competing light chain m12
[25] = target: D3H44 light chain Q124R_T178R, N-terminal HA or FLAG tag; experiment: LCCA, L1:L2 DNA 1:3, SPR of light chain tags; competing light chain m13
[26] = target: D3H44 light chain T178R, N-terminal HA or FLAG tag; experiment: as above
[27] = target: D3H44 light chain Q124E_T180E, N-terminal HA or FLAG tag; experiment: LCCA, L1:L2 DNA 1:3, SPR of light chain tags; competing light chain m12
[28] = target: D3H44 light chain Q124E_Q160E_T180E, N-terminal HA or FLAG tag; experiment: as above
[29] = target: D3H44 light chain Q124E_T180E, N-terminal HA or FLAG tag; experiment: LCCA, L1:L2 DNA 1:3, SPR of light chain tags; competing light chain m15
[30] = target: D3H44 light chain Q124K_T178R, N-terminal HA or FLAG tag; experiment: LCCA, L1:L2 DNA 1:3, SPR of light chain tags; competing light chain m13
[31] = target: D3H44 light chain Q124R_T178R, N-terminal HA or FLAG tag; experiment: LCCA, L1:L2 DNA 1:3, SPR of light chain tags; competing light chain m19
[32] = target: D3H44 light chain Q124E_S176L_T180E, N-terminal HA or FLAG tag; experiment: LCCA, L1:L2 DNA 1:3, SPR of light chain tags; competing light chain m12

H1L1:H1L2 normalized median ratio [1]: 9 share of 100 | H1L1:H1L2 normalized median ratio [2]: 12 share of 100 | H1L1:H1L2 normalized median ratio [3]: 91 share of 100 | H1L1:H1L2 normalized median scalar value ln(r1/f1) [3]: 2.37 | H1L1:H1L2 normalized median ratio [4]: 59 share of 100 | H1L1:H1L2 normalized median scalar value ln(r1/f1) [4]: 0.37 | H1L1:H1L2 normalized median ratio [5]: 88 share of 100 | H1L1:H1L2 normalized median scalar value ln(r1/f1) [5]: 1.95 | H1L1:H1L2 normalized median ratio [6]: 41 share of 100 | H1L1:H1L2 normalized median ratio [7]: 41 share of 100 | H1L1:H1L2 normalized median ratio [8]: 59 share of 100 | H1L1:H1L2 normalized median scalar value ln(r1/f1) [8]: 0.33 and 0.38
Substance: D3H44 Fab heavy chain L143E_K145T, C-terminal ABD2-His6 tag

H2L2:H2L1 normalized median ratio [1]: 96 share of 100 | H2L2:H2L1 normalized median ratio [2]: 74 share of 100 | H2L2:H2L1 normalized median ratio [9]: 93 share of 100 | H2L2:H2L1 normalized median ratio [3]: 4 share of 100 | H2L2:H2L1 normalized median ratio [10]: 4 share of 100 | H2L2:H2L1 normalized median ratio [5]: 26 share of 100 | H2L2:H2L1 normalized median ratio [11]: 7 share of 100 | H2L2:H2L1 normalized median ratio [12]: 96 share of 100
Substance: D3H44 Fab heavy chain L143R, C-terminal ABD2-His6 tag

H1L1:H1L2 normalized median ratio [13]: 82 share of 100 | H1L1:H1L2 normalized median scalar value ln(r1/f1) [13]: 1.55 | H1L1:H1L2 normalized median ratio [14]: 78 share of 100 | H1L1:H1L2 normalized median scalar value ln(r1/f1) [14]: 1.28 | H1L1:H1L2 normalized median ratio [15]: 86 share of 100 | H1L1:H1L2 normalized median scalar value ln(r1/f1) [15]: 1.84 | H1L1:H1L2 normalized median ratio [16]: 22 share of 100 | H1L1:H1L2 normalized median ratio [17]: 14 share of 100 | H1L1:H1L2 normalized median ratio [18]: 35 share of 100 | H1L1:H1L2 normalized median ratio [19]: 11 share of 100 | H1L1:H1L2 normalized median ratio [7]: 31 share of 100 | H1L1:H1L2 normalized median ratio [20]: 87 share of 100 | H1L1:H1L2 normalized median scalar value ln(r1/f1) [20]: 1.9 | H1L1:H1L2 normalized median ratio [21]: 89 share of 100 | H1L1:H1L2 normalized median scalar value ln(r1/f1) [21]: 2.08 and 2.03 | H1L1:H1L2 normalized median ratio [22]: 86 share of 100 | H1L1:H1L2 normalized median scalar value ln(r1/f1) [22]: 1.78 | H1L1:H1L2 normalized median ratio [23]: 14 share of 100 | H1L1:H1L2 normalized median ratio [24]: 18 share of 100 | H1L1:H1L2 normalized median ratio [8]: 69 share of 100 | H1L1:H1L2 normalized median scalar value ln(r1/f1) [8]: 0.79 | H1L1:H1L2 normalized median ratio [25]: 76 share of 100 | H1L1:H1L2 normalized median scalar value ln(r1/f1) [25]: 1.14 | H1L1:H1L2 normalized median ratio [26]: 65 share of 100 | H1L1:H1L2 normalized median scalar value ln(r1/f1) [26]: 0.64 | H1L1:H1L2 normalized median ratio [27]: 24 share of 100 | H1L1:H1L2 normalized median ratio [28]: 13 share of 100
Substance: D3H44 Fab heavy chain L143E_K145T_Q179D, C-terminal ABD2-His6 tag

H2L2:H2L1 normalized median ratio [13]: 10 share of 100 | H2L2:H2L1 normalized median ratio [14]: 7 share of 100 | H2L2:H2L1 normalized median ratio [15]: 10 share of 100 | H2L2:H2L1 normalized median ratio [16]: 93 share of 100 | H2L2:H2L1 normalized median ratio [29]: 96 share of 100 | H2L2:H2L1 normalized median ratio [17]: 92 share of 100 | H2L2:H2L1 normalized median ratio [18]: 96 share of 100 | H2L2:H2L1 normalized median ratio [19]: 89 share of 100 | H2L2:H2L1 normalized median ratio [7]: 96 share of 100 | H2L2:H2L1 normalized median ratio [20]: 12 share of 100 | H2L2:H2L1 normalized median ratio [21]: 11 share of 100 | H2L2:H2L1 normalized median ratio [22]: 8 share of 100 | H2L2:H2L1 normalized median ratio [23]: 90 share of 100 | H2L2:H2L1 normalized median ratio [24]: 90 share of 100 | H2L2:H2L1 normalized median ratio [8]: 4 share of 100 | H2L2:H2L1 normalized median ratio [25]: 4 share of 100 | H2L2:H2L1 normalized median ratio [26]: 4 share of 100 | H2L2:H2L1 normalized median ratio [30]: 4 share of 100 | H2L2:H2L1 normalized median ratio [31]: 4 share of 100 | H2L2:H2L1 normalized median ratio [27]: 96 share of 100 | H2L2:H2L1 normalized median ratio [28]: 88 share of 100 | H2L2:H2L1 normalized median ratio [32]: 96 share of 100
Substance: D3H44 Fab heavy chain Q179K, C-terminal ABD2-His6 tag
